Data on one molecule can be found in patent US20150250895A1 (GEORGETOWN UNIVERSITY, published 2015).

The assay addresses T1, activated matriptase (human, UniProt Q9Y5Y6 1-855).
T1 sequence (looked up): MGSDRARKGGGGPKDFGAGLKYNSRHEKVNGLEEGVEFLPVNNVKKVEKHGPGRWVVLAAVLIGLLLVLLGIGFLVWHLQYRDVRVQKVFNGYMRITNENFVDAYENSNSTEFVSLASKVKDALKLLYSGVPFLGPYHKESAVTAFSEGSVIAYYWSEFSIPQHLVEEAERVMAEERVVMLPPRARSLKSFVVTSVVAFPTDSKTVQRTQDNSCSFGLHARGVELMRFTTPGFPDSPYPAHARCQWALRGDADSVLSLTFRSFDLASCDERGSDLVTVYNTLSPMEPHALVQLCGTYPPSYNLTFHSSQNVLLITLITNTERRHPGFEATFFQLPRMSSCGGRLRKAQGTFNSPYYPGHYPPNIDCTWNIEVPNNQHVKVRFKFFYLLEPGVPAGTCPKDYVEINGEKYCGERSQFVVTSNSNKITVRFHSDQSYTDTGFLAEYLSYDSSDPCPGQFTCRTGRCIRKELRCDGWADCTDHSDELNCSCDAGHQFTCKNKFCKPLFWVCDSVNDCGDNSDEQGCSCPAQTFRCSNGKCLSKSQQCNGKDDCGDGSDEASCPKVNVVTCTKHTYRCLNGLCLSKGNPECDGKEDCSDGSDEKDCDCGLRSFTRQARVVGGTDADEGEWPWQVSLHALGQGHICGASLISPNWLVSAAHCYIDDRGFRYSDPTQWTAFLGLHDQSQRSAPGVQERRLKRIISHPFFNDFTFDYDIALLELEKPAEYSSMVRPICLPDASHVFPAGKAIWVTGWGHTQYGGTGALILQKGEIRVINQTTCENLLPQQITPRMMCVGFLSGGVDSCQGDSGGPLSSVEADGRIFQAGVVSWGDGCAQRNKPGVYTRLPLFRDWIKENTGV
Briefly: cell-based or functional assay.

B1: M17-DOX (monoclonal antibody M17 against activated matriptase conjugated to doxorubicin) (antibody, V domains shown)
VH: EVKLVESGGGLVQPGGSRKLSCAASGFTFSSFGMHWVRQAPEKGLEWVAYISSGSSTLHYADTVKGRFTISRDNPENTLLLMKLPSLCYGLLGSRNLSPRVLQ
VL: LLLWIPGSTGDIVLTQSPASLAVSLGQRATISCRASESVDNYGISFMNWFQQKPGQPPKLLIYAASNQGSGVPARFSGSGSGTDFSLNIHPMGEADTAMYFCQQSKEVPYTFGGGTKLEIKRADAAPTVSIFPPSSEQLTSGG
modifications: doxorubicin coupled via thioether bond formed by the SMCC reaction; sites not stated
For B1, the “IC50, MTS cell proliferation (cytotoxicity) assay, breast cancer cells MDA-MB468” value came to 0.65 µg/mL.
